Consider 18 molecules from patent US12383631B2, “Immune antigen specific IL-18 immunocytokines and uses thereof” (Bright Peak Therapeutics AG, priority 2022, dated 2025).

This assay addresses T1, human IL-18 binding protein isoform a (IL-18BPa) (Homo sapiens, UniProt O95998).
T1 sequence (O95998 31-194): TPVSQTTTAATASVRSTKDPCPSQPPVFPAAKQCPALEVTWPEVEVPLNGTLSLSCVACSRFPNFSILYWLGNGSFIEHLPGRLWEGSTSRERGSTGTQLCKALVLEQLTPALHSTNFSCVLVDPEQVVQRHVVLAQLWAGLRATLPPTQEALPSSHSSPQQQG
Nature of the assay: IL-18 Binding Protein inhibition cellular assay in NK-92 cells (Example 4 / 17C). In kind it is cell-based. To be noted: inhibition by IL-18BP of IFNγ stimulation in NK92 cells. As for the experimental part: The NK cell line NK-92 derived from a patient with lymphoma (ATCC® CRL-2407™) is cultured in aMEM medium supplemented with 20% FCS-Glutamax, 25 μM β-mercaptoethanol, and 100 IU/mL of recombinant human IL-2.
On the day of experiment, cells are harvested and washed with aMEM medium without IL-2 and containing 1 ng/mL of recombinant human IL-12. After counting, the cells are seeded at 100,000 cells/well in a 384 well titer plate and incubated at 37° C./5% CO2. Sixteen 2-fold serial dilutions of Fc-fused human IL-18 binding protein isoform a (IL-18BPa) are prepared in aMEM medium. 1 ng/mL of IL-12 containing 2 nM of each modified IL-18 polypeptide variant is added to the NK-92 cells. The final IL-18 analyte concentration is 1 nM, and the final IL-18BPa concentration ranged from 566 nM to 17 pM.
After incubating the cells for 16-20 hr at 37° C./5% CO2, 5 μL of the supernatant is carefully transferred to a 384 microwell OptiPlate. IFNγ levels are measured using a human IFNγ AlphaLISA Assay Kit. Briefly, 10 μL of 2.5× AlphaLISA anti-IFNγ acceptor beads and biotinylated antibody anti-IFNγ mix are added to 5 μL of NK-92 supernatants. The mixtures are incubated for 1 hr at room temperature with shaking. Under subdued light, 2.5 μL of 2×SA donor beads are pipetted in each well and incubated for 30 min at room temperature with shaking. AlphaLISA signals are then measured on an EnSpire™ plate reader using 680 nm and 615 nm as excitation and emission wavelengths, respectively. Half maximal inhibitory concentrations (IC50) are calculated based on a variable slope and four parameter analysis using GraphPad PRISM software.
17C—IFNγ Stimulation and IL-18BP Inhibition Assay—The experiments described in Example 4 for determination of IFNg stimulation in NK92 cells (and inhibition by IL-18 BP) were performed substantially as described on modified IL-18 polypeptides in order to assess their activities and their suitability for incorporation into immunocytokine compositions.

B1: C143: IL-18 polypeptide: V11I, C38A, K53A, C76A, C127A (protein)
chain: YFGKLESKLSIIRNLNDQVLFIDQGNRPLFEDMTDSDARDNAPRTIFIISMYADSQPRGMAVTISVKCEKISTLSAENKIISFKEMNPPDNIKDTKSDIIFFQRSVPGHDNKMQFESSSYEGYFLAAEKERDLFKLILKKEDELGDRSIMFTVQNED
The molecule B1 registered an IC50 of 1.62 nM.

B2: C148: IL-18 polypeptide: F2A, V11I, C38A, K53A, C76A, C127A (protein)
chain: YAGKLESKLSIIRNLNDQVLFIDQGNRPLFEDMTDSDARDNAPRTIFIISMYADSQPRGMAVTISVKCEKISTLSAENKIISFKEMNPPDNIKDTKSDIIFFQRSVPGHDNKMQFESSSYEGYFLAAEKERDLFKLILKKEDELGDRSIMFTVQNED
B2 gave an IC50 of 5.05 nM.

B3: C149: IL-18 polypeptide: V11I, E31A, C38A, K53A, C76A, C127A (protein)
chain: YFGKLESKLSIIRNLNDQVLFIDQGNRPLFADMTDSDARDNAPRTIFIISMYADSQPRGMAVTISVKCEKISTLSAENKIISFKEMNPPDNIKDTKSDIIFFQRSVPGHDNKMQFESSSYEGYFLAAEKERDLFKLILKKEDELGDRSIMFTVQNED
In the case of B3, the IC50 was determined as 1.17 nM.

B4: C154: IL-18 polypeptide: V11I, E31A, D37A, C38A, K53A, C76A, C127A (protein)
chain: YFGKLESKLSIIRNLNDQVLFIDQGNRPLFADMTDSAARDNAPRTIFIISMYADSQPRGMAVTISVKCEKISTLSAENKIISFKEMNPPDNIKDTKSDIIFFQRSVPGHDNKMQFESSSYEGYFLAAEKERDLFKLILKKEDELGDRSIMFTVQNED
On to B4, for which the IC50 came out at 3.71 nM. Against the preceding molecule, the IC50 is about 3.2-fold higher.

B5: C147: IL-18 polypeptide: V11I, C38A, K53A, D54A, C76A, C127A (protein)
chain: YFGKLESKLSIIRNLNDQVLFIDQGNRPLFEDMTDSDARDNAPRTIFIISMYAASQPRGMAVTISVKCEKISTLSAENKIISFKEMNPPDNIKDTKSDIIFFQRSVPGHDNKMQFESSSYEGYFLAAEKERDLFKLILKKEDELGDRSIMFTVQNED
As for B5, the IC50 was found to be 47.6 nM.

B6: C158: IL-18 polypeptide: V11I, C38A, K53A, C76A, G108A, C127A (protein)
chain: YFGKLESKLSIIRNLNDQVLFIDQGNRPLFEDMTDSDARDNAPRTIFIISMYADSQPRGMAVTISVKCEKISTLSAENKIISFKEMNPPDNIKDTKSDIIFFQRSVPAHDNKMQFESSSYEGYFLAAEKERDLFKLILKKEDELGDRSIMFTVQNED
B6 returned an IC50 of 3.98 nM.

B7: C151: IL-18 polypeptide: V11I, D35A, C38A, K53A, C76A, C127A (protein)
chain: YFGKLESKLSIIRNLNDQVLFIDQGNRPLFEDMTASDARDNAPRTIFIISMYADSQPRGMAVTISVKCEKISTLSAENKIISFKEMNPPDNIKDTKSDIIFFQRSVPGHDNKMQFESSSYEGYFLAAEKERDLFKLILKKEDELGDRSIMFTVQNED
B7 showed an IC50 of 3.62 nM.

B8: C150: IL-18 polypeptide: V11I, T34A, C38A, K53A, C76A, C127A (protein)
chain: YFGKLESKLSIIRNLNDQVLFIDQGNRPLFEDMADSDARDNAPRTIFIISMYADSQPRGMAVTISVKCEKISTLSAENKIISFKEMNPPDNIKDTKSDIIFFQRSVPGHDNKMQFESSSYEGYFLAAEKERDLFKLILKKEDELGDRSIMFTVQNED
B8 registered an IC50 of 21.3 nM. This IC50 is about 5.9-fold higher than that of the molecule before.

B9: C159: IL-18 polypeptide: V11I, C38A, K53A, C76A, H109A, C127A (protein)
chain: YFGKLESKLSIIRNLNDQVLFIDQGNRPLFEDMTDSDARDNAPRTIFIISMYADSQPRGMAVTISVKCEKISTLSAENKIISFKEMNPPDNIKDTKSDIIFFQRSVPGADNKMQFESSSYEGYFLAAEKERDLFKLILKKEDELGDRSIMFTVQNED
B9 came in with an IC50 of 1.81 nM. This IC50 is about 12-fold lower than that of the molecule before.

B10: C145: IL-18 polypeptide: V11I, C38A, K53A, S55A, C76A, C127A (protein)
chain: YFGKLESKLSIIRNLNDQVLFIDQGNRPLFEDMTDSDARDNAPRTIFIISMYADAQPRGMAVTISVKCEKISTLSAENKIISFKEMNPPDNIKDTKSDIIFFQRSVPGHDNKMQFESSSYEGYFLAAEKERDLFKLILKKEDELGDRSIMFTVQNED
For B10, the IC50 worked out at 10.2 nM.

B11: C160: IL-18 polypeptide: V11I, C38A, K53A, C76A, D110A, C127A (protein)
chain: YFGKLESKLSIIRNLNDQVLFIDQGNRPLFEDMTDSDARDNAPRTIFIISMYADSQPRGMAVTISVKCEKISTLSAENKIISFKEMNPPDNIKDTKSDIIFFQRSVPGHANKMQFESSSYEGYFLAAEKERDLFKLILKKEDELGDRSIMFTVQNED
In the case of B11, the IC50 came to 3.18 nM. Against the preceding molecule, the IC50 is about 3.2-fold lower.

B12: C144: IL-18 polypeptide: V11I, C38A, K53A, T63A, C76A, C127A (protein)
chain: YFGKLESKLSIIRNLNDQVLFIDQGNRPLFEDMTDSDARDNAPRTIFIISMYADSQPRGMAVAISVKCEKISTLSAENKIISFKEMNPPDNIKDTKSDIIFFQRSVPGHDNKMQFESSSYEGYFLAAEKERDLFKLILKKEDELGDRSIMFTVQNED
The molecule B12 gave an IC50 of 7.52 nM.

B13: C156: IL-18 polypeptide: V11I, C38A, N41A, K53A, C76A, C127A (protein)
chain: YFGKLESKLSIIRNLNDQVLFIDQGNRPLFEDMTDSDARDAAPRTIFIISMYADSQPRGMAVTISVKCEKISTLSAENKIISFKEMNPPDNIKDTKSDIIFFQRSVPGHDNKMQFESSSYEGYFLAAEKERDLFKLILKKEDELGDRSIMFTVQNED
Regarding B13, the IC50 worked out at 0.681 nM.

B14: C155: IL-18 polypeptide: V11I, C38A, D40A, K53A, C76A, C127A (protein)
chain: YFGKLESKLSIIRNLNDQVLFIDQGNRPLFEDMTDSDARANAPRTIFIISMYADSQPRGMAVTISVKCEKISTLSAENKIISFKEMNPPDNIKDTKSDIIFFQRSVPGHDNKMQFESSSYEGYFLAAEKERDLFKLILKKEDELGDRSIMFTVQNED
As to B14, the IC50 is 3.23 nM.

B15: C153: IL-18 polypeptide: V11I, D37A, C38A, K53A, C76A, C127A (protein)
chain: YFGKLESKLSIIRNLNDQVLFIDQGNRPLFEDMTDSAARDNAPRTIFIISMYADSQPRGMAVTISVKCEKISTLSAENKIISFKEMNPPDNIKDTKSDIIFFQRSVPGHDNKMQFESSSYEGYFLAAEKERDLFKLILKKEDELGDRSIMFTVQNED
On to B15, for which the IC50 was 2.22 nM.

B16: C157: IL-18 polypeptide: V11I, C38A, K53A, C76A, C127A, D132A (protein)
chain: YFGKLESKLSIIRNLNDQVLFIDQGNRPLFEDMTDSDARDNAPRTIFIISMYADSQPRGMAVTISVKCEKISTLSAENKIISFKEMNPPDNIKDTKSDIIFFQRSVPGHDNKMQFESSSYEGYFLAAEKERALFKLILKKEDELGDRSIMFTVQNED
On to B16, for which the IC50 is 6.08 nM.

B17: SEQ ID NO: 68: IL-18 polypeptide: V11I, C38A, M51G, K53A, C76A, C127A (protein)
chain: YFGKLESKLSIIRNLNDQVLFIDQGNRPLFEDMTDSDARDNAPRTIFIISGYADSQPRGMAVTISVKCEKISTLSAENKIISFKEMNPPDNIKDTKSDIIFFQRSVPGHDNKMQFESSSYEGYFLAAEKERDLFKLILKKEDELGDRSIMFTVQNED
Take B17: the IC50 is 733 nM.

B18: C152: IL-18 polypeptide: V11I, S36A, C38A, K53A, C76A, C127A (protein)
chain: YFGKLESKLSIIRNLNDQVLFIDQGNRPLFEDMTDADARDNAPRTIFIISMYADSQPRGMAVTISVKCEKISTLSAENKIISFKEMNPPDNIKDTKSDIIFFQRSVPGHDNKMQFESSSYEGYFLAAEKERDLFKLILKKEDELGDRSIMFTVQNED
As for B18, the IC50 worked out at 7.85 nM.

The IC50 is the concentration needed to halve the response being measured. A high value points to a need for much substance.
